Series [1] deals with HeLa Kyoto. The series can be described thus: melting temperature (median over replicates), in situ; higher = more thermally stable.
The test system of series [2] is HeLa Kyoto. Nature of the series: thermal stability score vs G1/S (z-score of summed log2 fold changes over temperatures); higher = more thermally stable than in G1/S.
Series [3] concerns HeLa Kyoto. The series can be described thus: solubility in G1/S (NP-40 vs SDS abundance) (log2 ratio); higher = more soluble. The following applies: cell cycle stage: G1/S.
Series [4] concerns HeLa Kyoto. The series can be described thus: solubility change mitosis vs G1/S (difference of NP-40 vs SDS log2 ratios) (log2 ratio difference); higher = more soluble in mitosis.
The mark [5] stands for this setting: cell cycle stage: early G1 (4.5 h after nocodazole release).
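Wherever melting temperature (median over replicates), in situ is given: HeLa Kyoto cells synchronized by double thymidine or nocodazole block, proteins quantified by TMT10plex mass spectrometry, three independent biological replicates.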
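Wherever solubility change mitosis vs G1/S (difference of NP-40 vs SDS log2 ratios) is given: synchronized HeLa Kyoto cells (double thymidine block for G1/S, nocodazole release for mitosis), protein amounts in NP-40 versus SDS lysates quantified by mass spectrometry, three biological replicates.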
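Wherever solubility in G1/S (NP-40 vs SDS abundance) is given: HeLa Kyoto cells arrested at G1/S by double thymidine block, proteins quantified by TMT10plex mass spectrometry in mild NP-40 versus SDS extracts, three biological replicates.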
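Wherever thermal stability score vs G1/S (z-score of summed log2 fold changes over temperatures) is given: synchronized HeLa Kyoto cells, proteins quantified by TMT10plex mass spectrometry, three biological replicates, mitosis taken 0.5 h after nocodazole release, G1/S directly after double thymidine block.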

For “MAMMVFPREEKLSQDEIVLGTKAVIQGLETLRGEHRALLAPLVAPEAGEAEPGSQERCILLRRSLEAIELGLGEAQVILALSSHLGAVESEKQKLRAQVRRLVQENQWLREELAGTQQKLQRSEQAVAQLEEEKQHLLFMSQIRKLDEDASPNEEKGDVPKDTLDDLFPNEDEQSPAPSPGGGDVSGQHGGYEIPARLRTLHNLVIQYASQGRYEVAVPLCKQALEDLEKTSGHDHPDVATMLNILALVYRDQNKYKEAAHLLNDALAIREKTLGKDHPAVAATLNNLAVLYGKRGKYKEAEPLCKRALEIREKVLGKFHPDVAKQLSNLALLCQNQGKAEEVEYYYRRALEIYATRLGPDDPNVAKTKNNLASCYLKQGKYQDAETLYKEILTRAHEKEFGSVNGDNKPIWMHAEEREESKDKRRDSAPYGEYGSWYKACKVDSPTVNTTLRSLGALYRRQGKLEAAHTLEDCASRNRKQGLDPASQTKVVELLKDGSGRRGDRRSSRDMAGGAGPRSESDLEDVGPTAEWNGDGSGSLRRSGSFGKLRDALRRSSEMLVKKLQGGTPQEPPNPRMKRASSLNFLNKSVEEPTQPGGTGLSDSRTLSSSSMDLSRRSSLVG [KLC2]”, the values for the melting temperature in the series with HeLa Kyoto [1] (cell cycle stage: G1/S) and in the series with HeLa Kyoto [1] (cell cycle stage: mitosis) were 50 °C and 50.1 °C, respectively. In addition, the thermal stability score with HeLa Kyoto [2] (setting [5]) was found to be 0.627; in the series with HeLa Kyoto [2] (cell cycle stage: mitosis), 1.01. The “solubility in G1/S (log2)” value in the series on HeLa Kyoto [3] came out at 0.526. Also, in the series on HeLa Kyoto [4], the “solubility change mitosis (log2)” value amounted to 0.0405.

Turning to “MAMNYNAKDEVDGGPPCAPGGTAKTRRPDNTAFKQQRLPAWQPILTAGTVLPIFFIIGLIFIPIGIGIFVTSNNIREIEIDYTGTEPSSPCNKCLSPDVTPCFCTINFTLEKSFEGNVFMYYGLSNFYQNHRRYVKSRDDSQLNGDSSALLNPSKECEPYRRNEDKPIAPCGAIANSMFNDTLELFLIGNDSYPIPIALKKKGIAWWTDKNVKFRNPPGGDNLEERFKGTTKPVNWLKPVYMLDSDPDNNGFINEDFIVWMRTAALPTFRKLYRLIERKSDLHPTLPAGRYSLNVTYNYPVHYFDGRKRMILSTISWMGGKNPFLGIAYIAVGSISFLLGVVLLVINHKYRNSSNTADITI [TMEM30A]”, the melting temperature with HeLa Kyoto [1] (cell cycle stage: G1/S) stood at 54.2 °C; with HeLa Kyoto [1] (cell cycle stage: mitosis) it was 54.6 °C. Further, the thermal stability score is -0.78 with HeLa Kyoto [2] (setting [5]) and 0.594 with HeLa Kyoto [2] (cell cycle stage: mitosis). The “solubility in G1/S (log2)” value in the series with HeLa Kyoto [3] was determined as 0.428. In addition, the “solubility change mitosis (log2)” value with HeLa Kyoto [4] was -0.17.

Consider “MANINLKEITLIVGVVTACYWNSLFCGFVFDDVSAILDNKDLHPSTPLKTLFQNDFWGTPMSEERSHKSYRPLTVLTFRLNYLLSELKPMSYHLLNMIFHAVVSVIFLKVCKLFLDNKSSVIASLLFAVHPIHTEAVTGVVGRAELLSSIFFLAAFLSYTRSKGPDNSIIWTPIALTVFLVAVATLCKEQGITVVGICCVYEVFIAQGYTLPLLCTTAGQFLRGKGSIPFSMLQTLVKLIVLMFSTLLLVVIRVQVIQSQLPVFTRFDNPAAVSPTPTRQLTFNYLLPVNAWLLLNPSELCCDWTMGTIPLIESLLDIRNLATFTFFCFLGMLGVFSIRYSGDSSKTVLMALCLMALPFIPASNLFFPVGFVVAERVLYVPSMGFCILVAHGWQKISTKSVFKKLSWICLSMVILTHSLKTFHRNWDWESEYTLFMSALKVNKNNAKLWNNVGHALENEKNFERALKYFLQATHVQPDDIGAHMNVGRTYKNLNRTKEAEESYMMAKSLMPQIIPGKKYAARIAPNHLNVYINLANLIRANESRLEEADQLYRQAISMRPDFKQAYISRGELLLKMNKPLKAKEAYLKALELDRNNADLWYNLAIVHIELKEPNEALKKNFNRALELNPKHKLALFNSAIVMQESGEVKLRPEARKRLLSYINEEPLDANGYFNLGMLAMDDKKDNEAEIWMKKAIKLQADFRSALFNLALLYSQTAKELKALPILEELLRYYPDHIKGLILKGDILMNQKKDILGAKKCFERILEMDPSNVQGKHNLCVVYFEEKDLLKAERCLLETLALAPHEEYIQRHLNIVRDKISSSSFIEPIFPTSKISSVEGKKIPTESVKEIRGESRQTQIVKTSDNKSQSKSNKQLGKNGDEETPHKTTKDIKEIEKKRVAALKRLEEIERILNGE [TMTC3]”, for which the melting temperature with HeLa Kyoto [1] (cell cycle stage: G1/S) turned out to be 52.9 °C; in the series with HeLa Kyoto [1] (cell cycle stage: mitosis), 53.1 °C. Also, the thermal stability score is 0.0389 with HeLa Kyoto [2] (setting [5]) and 0.555 in the series on HeLa Kyoto [2] (cell cycle stage: mitosis). The “solubility in G1/S (log2)” value in the series with HeLa Kyoto [3] is -0.0354. For the same sequence, the “solubility change mitosis (log2)” value in the series with HeLa Kyoto [4] was -0.0802.

Turning to “MANNDAVLKRLEQKGAEADQIIEYLKQQVSLLKEKAILQATLREEKKLRVENAKLKKEIEELKQELIQAEIQNGVKQIPFPSGTPLHANSMVSENVIQSTAVTTVSSGTKEQIKGGTGDEKKAKEKIEKKGEKKEKKQQSIAGSADSKPIDVSRLDLRIGCIITARKHPDADSLYVEEVDVGEIAPRTVVSGLVNHVPLEQMQNRMVILLCNLKPAKMRGVLSQAMVMCASSPEKIEILAPPNGSVPGDRITFDAFPGEPDKELNPKKKIWEQIQPDLHTNDECVATYKGVPFEVKGKGVCRAQTMSNSGIK [AIMP1]”, the melting temperature with HeLa Kyoto [1] (cell cycle stage: G1/S) was found to be 48.3 °C; in the series with HeLa Kyoto [1] (cell cycle stage: mitosis), 49.1 °C. Also, the results for the thermal stability score with HeLa Kyoto [2] (setting [5]) and with HeLa Kyoto [2] (cell cycle stage: mitosis) were -0.0166 and 1.24, respectively. In the series on HeLa Kyoto [3], the “solubility in G1/S (log2)” value was 0.468. Also, the “solubility change mitosis (log2)” value in the series with HeLa Kyoto [4] was determined as 0.02.

As to “MANVSKKVSWSGRDRDDEEAAPLLRRTARPGGGTPLLNGAGPGAARQSPRSALFRVGHMSSVELDDELLDPDMDPPHPFPKEIPHNEKLLSLKYESLDYDNSENQLFLEEERRINHTAFRTVEIKRWVICALIGILTGLVACFIDIVVENLAGLKYRVIKGNIDKFTEKGGLSFSLLLWATLNAAFVLVGSVIVAFIEPVAAGSGIPQIKCFLNGVKIPHVVRLKTLVIKVSGVILSVVGGLAVGKEGPMIHSGSVIAAGISQGRSTSLKRDFKIFEYFRRDTEKRDFVSAGAAAGVSAAFGAPVGGVLFSLEEGASFWNQFLTWRIFFASMISTFTLNFVLSIYHGNMWDLSSPGLINFGRFDSEKMAYTIHEIPVFIAMGVVGGVLGAVFNALNYWLTMFRIRYIHRPCLQVIEAVLVAAVTATVAFVLIYSSRDCQPLQGGSMSYPLQLFCADGEYNSMAAAFFNTPEKSVVSLFHDPPGSYNPLTLGLFTLVYFFLACWTYGLTVSAGVFIPSLLIGAAWGRLFGISLSYLTGAAIWADPGKYALMGAAAQLGGIVRMTLSLTVIMMEATSNVTYGFPIMLVLMTAKIVGDVFIEGLYDMHIQLQSVPFLHWEAPVTSHSLTAREVMSTPVTCLRRREKVGVIVDVLSDTASNHNGFPVVEHADDTQPARLQGLILRSQLIVLLKHKVFVERSNLGLVQRRLRLKDFRDAYPRFPPIQSIHVSQDERECTMDLSEFMNPSPYTVPQEASLPRVFKLFRALGLRHLVVVDNRNQVVGLVTRKDLARYRLGKRGLEELSLAQT [CLCN7]”, the melting temperature in the series on HeLa Kyoto [1] (cell cycle stage: G1/S) was found to be 52.9 °C; in the series with HeLa Kyoto [1] (cell cycle stage: mitosis), 52.6 °C. Also, the thermal stability score with HeLa Kyoto [2] (setting [5]) is 0.135; in the series with HeLa Kyoto [2] (cell cycle stage: mitosis) it was -0.102. In addition, the “solubility in G1/S (log2)” value in the series with HeLa Kyoto [3] is -0.189. Moreover, the “solubility change mitosis (log2)” value with HeLa Kyoto [4] was -0.116.
